Test results reported in US20190112392A1 (Ablynx, published 2019).
Substitutions are numbered along the chain they refer to.

B1: T0170061G01 (VHH)
VHH: EVQLVESGGGLVQPGGSLRLSCAASGEIGRINFYRWYRQAPGNQREVVATITIADKTDYADSAKGRFTISRDESRNMVYLQMSSLKPEDTAVYFCHAGSRLYPYDYWGQGTQVTVSS
notes: Monovalent anti-TCR Nanobody, cluster C; expressed in E. coli as triple Flag, His6-tagged protein; also called T0170PMP061G01; not shown: C-terminal triple Flag-His6 tag of the E. coli-expressed monovalent
B2: T017000051 (bispecific antibody)
chain: EVQLVESGGGLVQPGGSLRLSCTFSGGTFSSYTMGWFRQAPGKEREFVAEVRWGGVTTYSNSLKDRFSISEDSVKNAVYLQMNSLKPEDTAVYYCAAVRQMYMTVVPDYWGQGTLVTVSSGGGGSGGGGSGGGGSGGGGSGGGGSGGGGSGGGGSEVQLVESGGGLVQPGGSLRLSCAASGEIGRINFYRWYRQAPGNQREVVATITIADKTDYADSAKGRFTISRDESRNMVYLQMSSLKPEDTAVYFCHAGSRLYPYDYWGQGTLVTVSSGAADYKDHDGDYKDHDIDYKDDDDKGAAHHHHHH
notes: CD20 x TCR bispecific Nanobody construct (cluster C); entry includes the FLAG3-HIS6 tag; also called 20CD019C07-35GS-T0170061G01-FLAG3-HIS6
B3: T017000031 (bispecific antibody)
chain: EVQLVESGGGLVQPGGSLRLSCITSGETFKINIWGWYRQAPGKQRELVASLTIGGATNYADSVKGRFTISEDSAKNTVYLQMNSLKPEDTAVYFCNAKSRLYPYDYWGQGTLVTVSSGGGGSGGGGSGGGGSGGGGSGGGGSGGGGSGGGGSEVQLVESGGGLVQPGGSLRLSCTFSGGTFSSYTMGWFRQAPGKEREFVAEVRWGGVTTYSNSLKDRFSISEDSVKNAVYLQMNSLKPEDTAVYYCAAVRQMYMTVVPDYWGQGTLVTVSSGAADYKDHDGDYKDHDIDYKDDDDKGAAHHHHHH
notes: TCR x CD20 bispecific Nanobody construct (cluster B); entry includes the FLAG3-HIS6 tag; also called T0170055C07-35GS-20CD019C07-FLAG3-HIS6
B4: T017000055 (bispecific antibody)
chain: EVQLVESGGGLVQPGGSLRLSCTFSGGTFSSYTMGWFRQAPGKEREFVAEVRWGGVTTYSNSLKDRFSISEDSVKNAVYLQMNSLKPEDTAVYYCAAVRQMYMTVVPDYWGQGTLVTVSSGGGGSGGGGSGGGGSGGGGSGGGGSGGGGSGGGGSEVQLVESGGGLVQPGGSLRLSCAASGDVHKINILGWYRQAPAKEREMVAHITIGDATDYADSAKGRFTISRDEAKNMVYLQMNSLKPEDTAVYFCRAYSRIYPYNYWGQGTLVTVSSGAADYKDHDGDYKDHDIDYKDDDDKGAAHHHHHH
notes: entry includes the FLAG3-HIS6 tag; also called 20CD019C07-35GS-T0170055A02-FLAG3-HIS6
B5: T017000038 (bispecific antibody)
chain: EVQLVESGGGLVQPGGSLRLSCAASGEIGRINFYRWYRQAPGNQREVVATITIADKTDYADSAKGRFTISRDESRNMVYLQMSSLKPEDTAVYFCHAGSRLYPYDYWGQGTLVTVSSGGGGSGGGGSGGGGSGGGGSGGGGSGGGGSGGGGSEVQLVESGGGLVQPGGSLRLSCTFSGGTFSSYTMGWFRQAPGKEREFVAEVRWGGVTTYSNSLKDRFSISEDSVKNAVYLQMNSLKPEDTAVYYCAAVRQMYMTVVPDYWGQGTLVTVSSGAADYKDHDGDYKDHDIDYKDDDDKGAAHHHHHH
notes: TCR x CD20 bispecific Nanobody construct (cluster C); entry includes the FLAG3-HIS6 tag; also called T0170061G01-35GS-20CD019C07-FLAG3-HIS6
B6: T017000042 (bispecific antibody)
chain: EVQLVESGGGLVQPGGSLRLSCAASGDVHKINILGWYRQAPAKEREMVAHITIGDATDYADSAKGRFTISRDEAKNMVYLQMNSLKPEDTAVYFCRAYSRIYPYNYWGQGTLVTVSSGGGGSGGGGSGGGGSGGGGSGGGGSGGGGSGGGGSEVQLVESGGGLVQPGGSLRLSCTFSGGTFSSYTMGWFRQAPGKEREFVAEVRWGGVTTYSNSLKDRFSISEDSVKNAVYLQMNSLKPEDTAVYYCAAVRQMYMTVVPDYWGQGTLVTVSSGAADYKDHDGDYKDHDIDYKDDDDKGAAHHHHHH
notes: TCR x CD20 bispecific Nanobody construct (cluster A); entry includes the FLAG3-HIS6 tag; also called T0170055A02-35GS-20CD019C07-FLAG3-HIS6
B7: T017000074 (bispecific antibody)
chain: B6 chain with A23V, I33F, A42G, M47K, T52S, A56Q, A74S, Y98F, N105D
notes: TCR x CD20 bispecific Nanobody construct (cluster A); entry includes the FLAG3-HIS6 tag; also called T0170056G05-35GS-20CD019C07-FLAG3-HIS6
B8: T017000107 (other)
chain: EVQLVESGGGLVQAGGSLRLSCAASGRTFSSYVMGWFRQATGKEREFVATIAWDSGSTYYADSVKGRFTISRDNAKNTVHLQMNSLKPEDTAVYYCAASYNVYYNNYYYPISRDEYDYWGQGTLVTVSSGGGGSGGGGSGGGGSGGGGSGGGGSGGGGSGGGGSEVQLVESGGGSVQAGGSLRLSCAASGDTYGSYWMGWFRQAPGKEREGVAAINRGGGYTVYADSVKGRFTISRDTAKNTVYLQMNSLRPDDTADYYCAASGVLGGLHEDWFNYWGQGTLVTVSSGGGGSGGGGSGGGGSGGGGSGGGGSGGGGSGGGGSEVQLVESGGGLVQPGGSLRLSCVASGDVHKINFLGWYRQAPGKEREKVAHISIGDQTDYADSAKGRFTISRDESKNMVYLQMNSLKPEDTAVYFCRAFSRIYPYDYWGQGTLVTVSSGAADYKDHDGDYKDHDIDYKDDDDKGAAHHHHHH
notes: EGFR x CEACAM5 x TCR multispecific Nanobody construct; entry includes the FLAG3-HIS6 tag; also called EGFR038G07-35GS-NbCEA5-35GS-T0170056G05-FLAG3-HIS6

What follows are binders tested against T1, human CD3 expressed on HEK293H cells (human, UniProt P04234 22-171; P09693 23-182; P07766 23-207; P20963 22-164) (assay: flow cytometry, HEK293H human CD3 cells).
T1 construct: also called HEK293H human CD3; HEK293H CD3
Description: (§1) Binding of purified monovalent anti-TCR Nanobodies to human TCR(2IAN)/CD3 expressed on HEK293H cells was evaluated and compared with the binding to HEK293H cells transfected with human CD3 in flow cytometry, as outlined in Example 5. Dilution series of anti-TCR Nanobodies starting from 1 μM were applied to the cells. The parental HEK293H cell line was included as TCR/CD3 negative cell line.
Nanobodies clearly bound to human TCR(2IAN)/CD3 expressed on HEK293H but not to the HEK293H cells transfected with human CD3 only, nor to the HEK293H parental cell line. The EC50 values obtained from the dose response curve are depicted in Table C-2.

T1 sequence (P04234 22-171 limits assumed, chain 1 of 4): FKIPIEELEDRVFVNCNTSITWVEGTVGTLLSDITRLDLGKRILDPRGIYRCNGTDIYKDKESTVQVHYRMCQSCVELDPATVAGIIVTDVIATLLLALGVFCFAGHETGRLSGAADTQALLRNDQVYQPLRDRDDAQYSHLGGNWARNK
T1 sequence (P09693 23-182 limits assumed, chain 2 of 4): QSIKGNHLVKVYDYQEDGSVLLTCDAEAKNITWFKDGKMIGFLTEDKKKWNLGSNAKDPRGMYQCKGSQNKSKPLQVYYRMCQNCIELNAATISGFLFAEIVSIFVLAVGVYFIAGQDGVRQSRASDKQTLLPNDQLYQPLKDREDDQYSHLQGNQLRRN
T1 sequence (P07766 23-207 limits assumed, chain 3 of 4): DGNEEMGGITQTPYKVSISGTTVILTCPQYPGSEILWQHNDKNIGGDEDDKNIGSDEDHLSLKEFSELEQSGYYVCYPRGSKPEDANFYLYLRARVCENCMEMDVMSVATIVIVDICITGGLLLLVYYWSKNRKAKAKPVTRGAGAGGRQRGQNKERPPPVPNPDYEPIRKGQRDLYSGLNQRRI
T1 sequence (P20963 22-164 limits assumed, chain 4 of 4): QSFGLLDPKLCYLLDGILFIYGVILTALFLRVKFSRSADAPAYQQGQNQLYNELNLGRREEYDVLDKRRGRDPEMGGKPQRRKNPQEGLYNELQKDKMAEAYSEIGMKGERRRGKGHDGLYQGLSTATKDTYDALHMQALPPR

Binder | MCF at 1 µM
B1 | 495 MCF

What follows are binders tested against T2, human CD20 on cells (human, UniProt P11836 1-297) (assay: cell-based or functional assay).
T2 sequence (looked up): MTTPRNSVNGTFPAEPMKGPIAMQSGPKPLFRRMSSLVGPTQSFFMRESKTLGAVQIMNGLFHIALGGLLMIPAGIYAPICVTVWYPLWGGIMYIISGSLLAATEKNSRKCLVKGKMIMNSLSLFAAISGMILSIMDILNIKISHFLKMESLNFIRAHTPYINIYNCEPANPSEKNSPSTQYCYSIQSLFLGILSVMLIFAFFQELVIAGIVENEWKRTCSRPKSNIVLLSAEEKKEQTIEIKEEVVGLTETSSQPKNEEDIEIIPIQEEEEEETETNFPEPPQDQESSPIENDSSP

Binder | IC50, flow cytometry based human T cell mediated Ramos killing assay, E:T 10:1
B2 | 0.57 nM
B3 | 1.1 nM
B4 | 0.53 nM
B5 | 2.7 nM
B6 | 5.7 nM
B7 | 0.92 nM

Target: T2, human CD20 on cells
Assay: cell-based or functional assay
Remark: another data set of the same source

Binder | IC50, xCELLigence human T cell mediated CHO-K1 CD20 killing assay, E:T 30:1, 44 h
B2 | 27 nM
B3 | 2.1 nM
B4 | 1.4 nM
B5 | 4.1 nM
B6 | 4.2 nM
B7 | 1.5 nM

Target: T3, T cell receptor alpha/beta on purified primary human T cells (human, UniProt P01848 1-140; P01850 1-176)
T3 construct: whole, on cells; also called human primary T cells
T3 TCR alpha (looked up): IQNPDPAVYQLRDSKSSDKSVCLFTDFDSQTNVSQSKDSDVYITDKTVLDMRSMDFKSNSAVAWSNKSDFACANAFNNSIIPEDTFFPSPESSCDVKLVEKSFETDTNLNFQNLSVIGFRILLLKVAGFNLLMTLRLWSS
T3 TCR beta (looked up): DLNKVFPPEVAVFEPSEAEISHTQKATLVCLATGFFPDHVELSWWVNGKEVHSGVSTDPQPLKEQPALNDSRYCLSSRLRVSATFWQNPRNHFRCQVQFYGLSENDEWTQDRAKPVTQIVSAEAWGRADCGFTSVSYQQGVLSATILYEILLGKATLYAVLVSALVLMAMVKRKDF
Assay: flow cytometry, purified primary human T cells

Binder | EC50
B2 | > 100 nM
B3 | 350 nM
B4 | 130 nM
B5 | > 100 nM
B6 | 230 nM
B7 | 190 nM

What follows are binders tested against T4, T cell receptor alpha/beta on primary cynomolgus T cells (cynomolgus) (assay: cell-based or functional assay).

Binder | IC50, flow cytometry based cynomolgus T cell mediated B cell (Ramos) killing assay
B3 | 0.79 nM
B4 | 0.569 nM
B6 | 0.17 nM
B7 | 0.24 nM

Target: T3, T cell receptor alpha/beta on purified …
Assay: flow cytometry, purified primary human T cells
Remark: another data set of the same source
Description: Periplasmic extracts were screened for cell expressed TCR/CD3 binding using human TCR/CD3 transfected CHO-K1 or HEK293H cells and the respective CHO-K1 or HEK293H reference cell line in a mixed cell line setup. To this end, a large batch of the reference cell lines were labelled with 8 μM PKH26 and frozen. 5×10⁴ PKH labelled reference cells were mixed with 5×10⁴ target cells and incubated with periplasmic extracts for 30 min at 4′C, and washed 3 times. […] Samples were washed, resuspended in FACS Buffer (D-PBS from Gibco, with 10% FBS from Sigma and 0.05% sodium azide from Merck) and then analysed via a BD FACSArray. […] In this gate, 20,000 cells were counted during acquisition. Based on PKH26-SSC distribution, the PKH labelled parental population and the human TCR/CD3 unlabelled target population was selected. For these 2 populations the mean APC value was calculated.
Binding of purified monovalent anti-TCR Nanobodies to human TCR(2XN9)/CD3 expressed on CHO-K1 cells and to purified primary human T cells was evaluated in flow cytometry as outlined in Example 4.1.

Binder | EC50
B1 | > 100 nM

Target: T4, T cell receptor alpha/beta on primary …
Assay: cell-based or functional assay
Remark: another data set of the same source

Binder | IC50, xCELLigence cynomolgus T cell mediated CHO-K1 human CD20 killing assay, E:T 30:1
B3 | 1.2 nM
B4 | 0.99 nM
B6 | 0.89 nM
B7 | 0.12 nM

The binders below were run against T2, human CD20 on cells (assay: flow cytometry, Ramos cells).

Binder | EC50
B2 | 2.7 nM
B3 | 23 nM
B4 | 1.8 nM
B5 | 21 nM
B6 | 20 nM
B7 | 16 nM

Each binder was assayed against T1, human CD3 expressed on HEK293H cells (assay: flow cytometry on HEK293H human CD3 cells, MCF).
Description: as §1

Binder | binding result
B1 | no binding (tested: 1e-6 M)

These binders were tested against T5, EGFR on cells (UniProt P00533 25-1210, limits assumed) (assay: flow cytometry, HER14 cells).
T5 construct: whole, on cells; also called HER14 cells (NIH3T3 transfected with EGFR); EGFR on LS174T and LoVo cells

Binder | EC50 | Top
B8 | 1.6 nM | 146000

These binders were tested against T5, EGFR on cells (assay: cell-based or functional assay).

Binder | IC50, xCELLigence human T cell mediated killing of HER14 cells, E:T 15, 50-60 h
B8 | 0.14 nM
